Experimental data published in article PMC4029989, “Selection of a Novel DNA Aptamer for Assay of Intracellular Interferon-Gamma”.

What was measured:
[1] = biological target: Interferon-gamma, intracellular (Homo sapiens, UniProt P01579 24-161); test: flow cytometry of fixed permeabilized cells; 0.05 pM aptamer; no correlation with stimulated cells; PBS binding buffer (SELEX with 0.1 mg/mL salmon sperm DNA and 1 mg/mL BSA, 37 °C); Kd assay on beads in binding buffer, room temperature, 30 min; pH not stated; details: protein: native; chain copies: 2
Chain of Interferon-gamma, intracellular (P01579 24-161): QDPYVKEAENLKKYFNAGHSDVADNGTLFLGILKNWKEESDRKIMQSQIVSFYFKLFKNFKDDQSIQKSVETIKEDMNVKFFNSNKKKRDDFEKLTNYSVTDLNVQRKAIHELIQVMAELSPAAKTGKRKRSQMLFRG

Interferon-gamma (IFN-γ) [2] = biological target: T1, Interferon-gamma (IFN-γ) (Homo sapiens, UniProt P01579 24-161); test: flow cytometry bead binding; binding buffer (PBS), room temperature, blank-bead signal subtracted; PBS binding buffer (SELEX with 0.1 mg/mL salmon sperm DNA and 1 mg/mL BSA, 37 °C); Kd assay on beads in binding buffer, room temperature, 30 min; pH not stated; details: protein: commercial; chain copies: 2; label: FITC
T1 sequence (P01579 24-161): as above

Interferon-gamma (IFN-γ) [3] = biological target: T1, Interferon-gamma (IFN-γ); test: flow cytometry bead binding; PBS binding buffer (SELEX with 0.1 mg/mL salmon sperm DNA and 1 mg/mL BSA, 37 °C); Kd assay on beads in binding buffer, room temperature, 30 min; pH not stated; details: protein: commercial; chain copies: 2; label: FITC
[4] = biological target: Bovine serum albumin (BSA) (Bos taurus, UniProt P02769 25-607); test: flow cytometry bead binding; bound albumin to a large degree; PBS binding buffer (SELEX with 0.1 mg/mL salmon sperm DNA and 1 mg/mL BSA, 37 °C); Kd assay on beads in binding buffer, room temperature, 30 min; pH not stated; details: protein: commercial; label: FITC
Chain of Bovine serum albumin (BSA) (P02769 25-607): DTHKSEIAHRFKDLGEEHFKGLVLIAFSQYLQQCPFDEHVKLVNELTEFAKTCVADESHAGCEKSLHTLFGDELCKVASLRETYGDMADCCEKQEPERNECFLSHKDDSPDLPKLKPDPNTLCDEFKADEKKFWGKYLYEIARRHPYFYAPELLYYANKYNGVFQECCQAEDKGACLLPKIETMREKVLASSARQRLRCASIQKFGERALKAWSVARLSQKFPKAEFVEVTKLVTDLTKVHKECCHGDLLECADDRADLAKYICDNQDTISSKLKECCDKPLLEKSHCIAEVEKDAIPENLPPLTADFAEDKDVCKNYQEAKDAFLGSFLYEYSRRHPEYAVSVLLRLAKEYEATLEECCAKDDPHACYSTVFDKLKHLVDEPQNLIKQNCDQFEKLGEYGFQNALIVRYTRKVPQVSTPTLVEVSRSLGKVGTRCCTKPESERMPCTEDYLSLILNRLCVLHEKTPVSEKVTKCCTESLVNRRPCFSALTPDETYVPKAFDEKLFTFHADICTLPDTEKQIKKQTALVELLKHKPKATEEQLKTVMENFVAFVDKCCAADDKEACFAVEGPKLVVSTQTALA

B1: A2 (ssDNA)
DNA: TGCCCGTGTCCCGAGGAGGTGCCCTATTTTGCTTGATTATCTCTAAGGGATTTGGGCGG
B1: no binding [1].

B2: B1-4 (ssDNA)
DNA: CCGCCCAAATCCCTAAGAGAAGACTGTAATGACATCAAACCAGACACACTACACACGCA
Binder B2 has a Kd (Interferon-gamma (IFN-γ) [2]) of 74.5 nM.

B3: T2 (ssDNA)
DNA: GGGGTTGGTTGTGTTGGGTGTTGTGT
B3: binds (Interferon-gamma (IFN-γ) [3]); binds [4].
